Consider three molecules from patent US20220098261A1 (Harvard, published 2022).

In one assay the target is T1, EPO receptor on cells (human, UniProt P19235 25-508).
T1 sequence (looked up): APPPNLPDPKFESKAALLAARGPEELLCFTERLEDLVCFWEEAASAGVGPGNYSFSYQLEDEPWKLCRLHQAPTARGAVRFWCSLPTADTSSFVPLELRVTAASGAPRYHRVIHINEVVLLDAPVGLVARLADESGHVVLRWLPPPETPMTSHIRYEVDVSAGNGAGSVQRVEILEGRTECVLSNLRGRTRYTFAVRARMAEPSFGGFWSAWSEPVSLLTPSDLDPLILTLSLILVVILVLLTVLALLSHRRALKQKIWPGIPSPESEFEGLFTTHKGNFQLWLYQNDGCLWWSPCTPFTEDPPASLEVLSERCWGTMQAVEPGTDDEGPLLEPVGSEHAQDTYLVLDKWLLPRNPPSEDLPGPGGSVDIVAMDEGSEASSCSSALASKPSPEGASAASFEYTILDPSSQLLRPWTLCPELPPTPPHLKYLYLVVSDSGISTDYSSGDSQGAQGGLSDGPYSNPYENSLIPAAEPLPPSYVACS
Description: cell-based or functional assay.

Assay [1] concerns the target T2, human glycophorin A (human, UniProt P02724 20-150).
T2 construct: Native protein on human red blood cells (and TF-1 cells); also called GYPA; huGYPA
T2 sequence: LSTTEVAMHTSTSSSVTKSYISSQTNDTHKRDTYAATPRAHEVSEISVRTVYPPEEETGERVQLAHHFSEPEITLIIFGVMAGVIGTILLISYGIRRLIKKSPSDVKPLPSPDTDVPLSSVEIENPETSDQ
The assay is described as follows: column 'Binding strength' of Table 1, format nanobody; method not stated.

The target of assay [2] is T2, human glycophorin A. Description: column 'Binding strength' of Table 1, format scFv; method not stated.

In the case of Darbepoetin (Amgen) (ligand), in the assay with EPO receptor on cells, the TF-1 cell proliferation, EC50 relative to epoetin alpha was found to be 14.7 fold.

B1: IH4v1 nanobody (VHH)
VHH: QVQLQESGGGSVQAGGSLRLSCVASGYTDSTYCVGWFRQAPGKEREGVARINTISGRPWYADSVKGRFTISQDNSKNTVYLQMNSLKPEDTAIYYCTLTTANSRGFCSGGYNYKGQGTQVTVS
notes: Camelid single-domain antibody with the added Thr118
Regarding B1, binding with human glycophorin A [1] was put at a Kd of 30 nM.

B2: 1C3 scFv (scFv)
scFv: EVRLLESGGGPVQPGGSLKLSCAASGFDFSRYWMNWVRRAPGKGLEWIGEINQQSSTINYSPPLKDKFIISRDNAKSTLYLQMNKVRSEDTALYYCARLSLTAAGFAYWGQGTLVTVSAGGGSSGGSGSSGGSSSGGDIVMSQSPSSLAVSVGEKVSMSCKSSQSLFNSRTRKNYLTWYQQKPGQSPKPLIYWASTRESGVPDRFTGSGSGTDFTLTISSVQAEDLADYYCKQSYNLRTFGGGTKLEIK
B2 displayed a Kd in the assay with human glycophorin A [2] of 30 nM.

One may read the Kd as the equilibrium constant for the complex coming apart. Read a low Kd as a tighter complex.
